Measurements: patent US20190233493A1 (Sanofi, published 2019)
*1 amine or outer side, *2 acyl side, *3 side chain or, on linkers, in order; H or OH if unused. Primed or numbered codes have the meaning given here. Side-chain parts run from the residue outwards. [ ]: non-standard residue; d: D form. The star is where a group is joined. TTDS(3) = O=C(CCC(=O)[*:2])NCCCOCCOCCOCCCN[*:1]; Lys(Me3) = C[N+](C)(C)CCCC[C@H](N)C(=O)O; Arg(Me2s) = CN=C(NC)NCCC[C@H](N)C(=O)O; γGlu = O=C(O)[C@H](CCC(=O)[*:2])N[*:1]; Arg(Me) = CNC(=N)NCCC[C@H](N)C(=O)O; Stearoyl = CCCCCCCCCCCCCCCCCC(=O)*; Palmitoyl = CCCCCCCCCCCCCCCC(=O)*; αMeF = C[C@](N)(Cc1ccccc1)C(=O)O; αMeK = C[C@](N)(CCCCN)C(=O)O; Nle = CCCC[C@H](N)C(=O)O; PEG2′ = PEG2 spacer unit; PEG2″ = not defined here; Aib = CC(C)(N)C(=O)O

T1: RXFP1 receptor (UniProt Q9HBX9 1-757, limits assumed)
T1 sequence (looked up): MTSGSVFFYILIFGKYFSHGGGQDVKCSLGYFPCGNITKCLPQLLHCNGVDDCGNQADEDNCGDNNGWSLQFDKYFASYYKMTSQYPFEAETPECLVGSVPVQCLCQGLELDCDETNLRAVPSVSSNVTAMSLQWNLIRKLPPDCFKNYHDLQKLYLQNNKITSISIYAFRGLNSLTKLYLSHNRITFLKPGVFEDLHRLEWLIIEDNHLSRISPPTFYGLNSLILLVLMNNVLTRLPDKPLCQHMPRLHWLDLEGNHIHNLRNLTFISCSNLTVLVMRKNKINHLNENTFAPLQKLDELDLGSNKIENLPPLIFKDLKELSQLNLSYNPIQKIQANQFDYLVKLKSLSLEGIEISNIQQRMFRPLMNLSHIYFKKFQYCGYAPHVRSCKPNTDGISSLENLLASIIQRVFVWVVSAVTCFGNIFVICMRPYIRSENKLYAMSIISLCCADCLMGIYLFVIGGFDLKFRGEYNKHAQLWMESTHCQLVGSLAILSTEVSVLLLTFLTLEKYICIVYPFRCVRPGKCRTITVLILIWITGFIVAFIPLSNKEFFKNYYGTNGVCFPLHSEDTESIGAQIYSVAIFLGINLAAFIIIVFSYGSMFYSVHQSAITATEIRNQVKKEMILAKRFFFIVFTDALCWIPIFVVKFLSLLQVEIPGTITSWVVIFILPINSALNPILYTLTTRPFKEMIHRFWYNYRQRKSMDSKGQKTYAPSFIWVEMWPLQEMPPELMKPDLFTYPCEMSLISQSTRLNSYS

B1: peptide of SEQ ID NO: 147 (peptide)
peptide: Ac-LEGREKVRAK(Ac)I[Aib][Aib]EG[Nle]STFS[Aib]RKK(Ac)K([PEG2′-PEG2′-PEG2′-PEG2′-γGlu-γGlu-γGlu-γGlu-Palmitoyl])-NH2
B2: peptide of SEQ ID NO: 155 (peptide)
peptide: Ac-LEGREKVRAK(Ac)I[Aib][Aib]EG[Nle]STWS[Aib]AAK(Ac)K([PEG2′-PEG2′-PEG2′-γGlu-γGlu-γGlu-Stearoyl])-NH2
B3: peptide of SEQ ID NO: 151 (peptide)
peptide: Ac-LEGREKVRAK(Ac)I[Aib][Aib]EG[Nle]STFS[αMeK][Arg(Me)]AK(Ac)[PEG2″][PEG2″][PEG2″][PEG2″][γGlu][γGlu][γGlu]K([γGlu-Palmitoyl])-NH2
B4: peptide of SEQ ID NO: 15 (peptide)
peptide: Ac-LEGREKVRAK(Ac)I[Aib][Aib]EG[Nle]STWS[Aib]RKK[PEG2″][PEG2″][PEG2″][PEG2″]K([γGlu-γGlu-γGlu-γGlu-Stearoyl])-NH2
B5: peptide of SEQ ID NO: 139 (peptide)
peptide: Ac-LEGREKVRAK(Ac)I[Aib][Aib]EG[Nle]STFSXAAK(Ac)[PEG2′][PEG2′][PEG2′][PEG2′][γGlu][γGlu][γGlu]K([γGlu-Palmitoyl])-NH2
modifications: not fully specified (some residues); printed as Ac-L-E-G-R-E-K-V-R-A-K(Ac)-I-Aib-Aib-E-G-Nle-S-T-F-S-Mly-A-A-K(Ac)-PEG2-PEG2-PEG2-PEG2-gE-gE-gE-K(gE-Palm)-NH2
B6: peptide of SEQ ID NO: 143 (peptide)
peptide: Ac-LEGREKVRAK(Ac)I[Aib][Aib]EG[Nle]STFS[αMeK]RKK(Ac)[PEG2′][PEG2′][PEG2′][PEG2′]K([γGlu-γGlu-γGlu-γGlu-Palmitoyl])-NH2
B7: peptide of SEQ ID NO: 140 (peptide)
peptide: Ac-LEGREKVRAK(Ac)I[Aib][Aib]EG[Nle]STFS[αMeK]RKK(Ac)K([PEG2′-PEG2′-PEG2′-PEG2′-γGlu-γGlu-γGlu-γGlu-Palmitoyl])-NH2
B8: peptide of SEQ ID NO: 141 (peptide)
peptide: Ac-LEGREKVRAK(Ac)I[Aib][Aib]EG[Nle]STWS[αMeK][Arg(Me)][Lys(Me3)]K(Ac)K([PEG2′-PEG2′-PEG2′-PEG2′-γGlu-γGlu-γGlu-γGlu-Palmitoyl])-NH2
B9: peptide of SEQ ID NO: 146 (peptide)
peptide: Ac-LEGREKVRAK(Ac)I[Aib][Aib]EG[Nle]STFS[αMeK]RKK(Ac)[TTDS(3)][TTDS(3)][γGlu][γGlu][γGlu]K([γGlu-Palmitoyl])-NH2
SMILES: CCCCCCCCCCCCCCCC(=O)N[C@@H](CCC(=O)NCCCC[C@H](NC(=O)CC[C@H](NC(=O)CC[C@H](NC(=O)CC[C@H](NC(=O)CCC(=O)NCCCOCCOCCOCCCNC(=O)CCC(=O)NCCCOCCOCCOCCCNC(=O)[C@H](CCCCNC(C)=O)NC(=O)[C@H](CCCCN)NC(=O)[C@H](CCCNC(=N)N)NC(=O)[C@](C)(CCCCN)NC(=O)[C@H](CO)NC(=O)[C@H](Cc1ccccc1)NC(=O)[C@@H](NC(=O)[C@H](CO)NC(=O)[C@H](CCCC)NC(=O)CNC(=O)[C@H](CCC(=O)O)NC(=O)C(C)(C)NC(=O)C(C)(C)NC(=O)[C@@H](NC(=O)[C@H](CCCCNC(C)=O)NC(=O)[C@H](C)NC(=O)[C@H](CCCNC(=N)N)NC(=O)[C@@H](NC(=O)[C@H](CCCCN)NC(=O)[C@H](CCC(=O)O)NC(=O)[C@H](CCCNC(=N)N)NC(=O)CNC(=O)[C@H](CCC(=O)O)NC(=O)[C@H](CC(C)C)NC(C)=O)C(C)C)[C@@H](C)CC)[C@@H](C)O)C(=O)O)C(=O)O)C(=O)O)C(N)=O)C(=O)O
B10: peptide of SEQ ID NO: 154 (peptide)
peptide: Ac-LEGREKVRAK(Ac)I[Aib][Aib]EG[Nle]STFS[αMeK]RAK(Ac)K([PEG2′-PEG2′-PEG2′-PEG2′-γGlu-γGlu-γGlu-γGlu-Palmitoyl])-NH2
B11: peptide of SEQ ID NO: 144 (peptide)
peptide: Ac-LEGREKVRAK(Ac)I[Aib][Aib]EG[Nle]STFS[Aib]RKK(Ac)[PEG2′][PEG2′][PEG2′][PEG2′]K([γGlu-γGlu-γGlu-Palmitoyl])-NH2
B12: peptide of SEQ ID NO: 150 (peptide)
peptide: Ac-LEGREKVRAK(Ac)I[Aib][Aib]EG[Nle]STFS[αMeK]RAK(Ac)[PEG2″][PEG2″][PEG2″][PEG2″]K([γGlu-γGlu-γGlu-γGlu-Palmitoyl])-NH2
B13: peptide of SEQ ID NO: 149 (peptide)
peptide: Ac-LEGREKVRAK(Ac)I[Aib][Aib]EG[Nle]STFS[αMeK]RAK(Ac)[PEG2″][PEG2″][PEG2″][PEG2″][γGlu][γGlu][γGlu]K([γGlu-Palmitoyl])-NH2
B14: peptide of SEQ ID NO: 152 (peptide)
peptide: Ac-LEGREKVRAK(Ac)I[Aib][Aib]EG[Nle]ST[αMeF]S[αMeK]RAK(Ac)[PEG2″][PEG2″][PEG2″][PEG2″][γGlu][γGlu][γGlu]K([γGlu-Palmitoyl])-NH2
B15: peptide of SEQ ID NO: 148 (peptide)
peptide: Ac-LEGREKVRAK(Ac)I[Aib][Aib]EG[Nle]STWS[Aib][Arg(Me2s)]KK(Ac)K-NH2
modifications: not fully specified (residue 25); printed as Ac-L-E-G-R-E-K-V-R-A-K(Ac)-I-Aib-Aib-E-G-Nle-S-T-W-S-Aib-Rds-K-K(Ac)-K(PEG2-PEG2-PEG2-gE-gE-gE-Stea)-NH2
B16: peptide of SEQ ID NO: 145 (peptide)
peptide: Ac-LEGREKVRAK(Ac)I[Aib][Aib]EG[Nle]STFSXRKK(Ac)[PEG2′][PEG2′][PEG2′][PEG2′][γGlu][γGlu][γGlu]K([γGlu-Palmitoyl])-NH2
modifications: not fully specified (some residues); printed as Ac-L-E-G-R-E-K-V-R-A-K(Ac)-I-Aib-Aib-E-G-Nle-S-T-F-S-Mly-R-K-K(Ac)-PEG2-PEG2-PEG2-PEG2-gE-gE-gE-K(gE-Palm)-NH2
B17: peptide of SEQ ID NO: 153 (peptide)
peptide: Ac-LEGREKVRAK(Ac)I[Aib][Aib]EG[Nle]STFS[Aib]RKK(Ac)K([PEG2′-PEG2′-PEG2′-PEG2′-γGlu-γGlu-γGlu-Palmitoyl])-NH2
B18: peptide of SEQ ID NO: 2 (peptide)
peptide: Ac-LEGREKVRAQI[Aib][Aib]EG[Nle]STWS[Aib]RKK([γGlu-Palmitoyl])-NH2
SMILES: CCCCCCCCCCCCCCCC(=O)N[C@@H](CCC(=O)NCCCC[C@H](NC(=O)[C@H](CCCCN)NC(=O)[C@H](CCCNC(=N)N)NC(=O)C(C)(C)NC(=O)[C@H](CO)NC(=O)[C@H](Cc1c[nH]c2ccccc12)NC(=O)[C@@H](NC(=O)[C@H](CO)NC(=O)[C@H](CCCC)NC(=O)CNC(=O)[C@H](CCC(=O)O)NC(=O)C(C)(C)NC(=O)C(C)(C)NC(=O)[C@@H](NC(=O)[C@H](CCC(N)=O)NC(=O)[C@H](C)NC(=O)[C@H](CCCNC(=N)N)NC(=O)[C@@H](NC(=O)[C@H](CCCCN)NC(=O)[C@H](CCC(=O)O)NC(=O)[C@H](CCCNC(=N)N)NC(=O)CNC(=O)[C@H](CCC(=O)O)NC(=O)[C@H](CC(C)C)NC(C)=O)C(C)C)[C@@H](C)CC)[C@@H](C)O)C(N)=O)C(=O)O
B19: peptide of SEQ ID NO: 16 (peptide)
peptide: Ac-LEGREKVRAK(Ac)I[Aib][Aib]EG[Nle]STWS[αMeK]RKK(Ac)[PEG2″][PEG2″][PEG2″]K([γGlu-γGlu-γGlu-γGlu-Stearoyl])-NH2
B20: peptide of SEQ ID NO: 138 (peptide)
peptide: Ac-LEGREKVRAK(Ac)I[Aib][Aib]EG[Nle]STWS[αMeK][Arg(Me)][Lys(Me3)]K(Ac)K([PEG2′-PEG2′-PEG2′-γGlu-γGlu-γGlu-Stearoyl])-NH2

The binders below were run against T1, RXFP1 receptor (assay: cell-based or functional assay).

EC50 (nM), OVCAR 5 cells (cAMP) [nM]	EMax, OVCAR 5 cells (cAMP) [%]	Binder
2.14	86	B1
1.17	95	B2
0.14	90	B3
0.32	92	B4
0.3	92	B5
0.4	88	B6
0.4	88	B7
0.16	87	B8
0.02	89	B9
0.4	92	B10
4.1	94	B11
0.07	92	B12
0.11	87	B13
0.04	91	B14
0.11	94	B15
0.4	99	B16
0.26	89	B17
24	100	B18
0.02	87	B19
0.02	91	B20
